In the nanobody polyreactivity screen of Harvey et al. (2022):

Assay: yeast display, Sf9 membrane polyspecificity reagent, FACS + sequencing; frameworks hold sequencing errors
Procedure, shortened: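 Galactose induction of a Saccharomyces cerevisiae BJ5465 synthetic nanobody display library ran 36–48 hours. The cells were then stained for 1 hour at 4 °C with 10% biotinylated, detergent-solubilized Sf9 membrane reagent, pulled down on streptavidin microbeads and FACS-sorted into low and high (top ~1%) gates on expression and reagent-binding fluorescence. Labels for polyreactivity follow the gate of origin.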

Row | Sequence | polyreactivity (PSR sort gate)
1 | QVQLVESGGGLVQAGGSLRLSCAASGFIFGLYGMGWYRPAPGKERELVAAISTSSGITYYADSVKGRFTISRDNAKNTVYLQMNSLKPEDTAVYYCAARGHYYDYWGQGTQVTVSS | low polyreactivity
2 | QDQLVESGGGLVQAGGSLRLSCAASGRIFYYNAIGWYRQAPGKEMELVATITRAGGTYYADSVKGRFTISRDNAKNTVYLQMNSLKPEDTAVYYCAKRHPIVDDYKGDYWGQGTQVTVSS | low polyreactivity
3 | QVQLVESGGGLVQAGGSLRLSCAASGSTLDSNAMGWYRQAPGKERELVAGIDWSGGSTYADSVKGRFTISRDNAKNTVYLQMNSLKPEDTAVYYCAKVSRYVQPYSRFDYWGQGTQVTVSS | low polyreactivity
4 | QVQLVESGGGLVQAGGSLRLSCAASGRIIDIYAMGWYRQAPGKERELVAAITSGGSTYYADSVKGRFTISRDNAKNTVYLQMNSLKPEDTAVYYCAARLFADYWGQGTQVTVSS | low polyreactivity
5 | QVQLVESGGGLVQAGGSLRLSCAASGIIFYYYGKGWYRQAPGKEREFVAAISTSGGNTYYADSVKGRFTISRDNAKNTVYLQMNSLKPEDTAVYYCAADDWPWGDAGVDYWGQGTQVTVSS | low polyreactivity
6 | QVQLVESGGGLVQAGGSHRLSCAASGSTFYGYAMGWYRQAPGKESELVAAIRFSGDRTYYADSVKGRFTISRDNAKNTVYLQMNSLKPEDTAVYYCAAYGYPYQRKYGSWGQGTQVTVSS | high polyreactivity
7 | QVQLVESGGGLVQAGGSLRLSCAASGRTFGKYAMGWYRQAPGKERELVAVITWRGVSTYADSVKGRFTISRDNAKNTVYLQMNSLKPEDTSFYYCAKTRVRGTEFGYWGLGTQVTVSS | low polyreactivity
8 | QVQLVESGGGLVQAGGSLRLSCAASGIIFSTYAMGWYRQAPGKDRELVAAITSTGSTNYADSEKGRFTISRDNAKTTVSLQMNSLKPEDTAVYFCAARYAGPSPTDTGHDYWGQGTQVTVSS | low polyreactivity
9 | QVQLVESGGGLVQAAGSLRLSCAASGSTFQYYAMGWYRQAPGKERELVAAISASVDTTFYADSVKGRFTISRDNAKNTVYLQMNSLKPEDTAVYYCAKRYVDPLGSGTHGSWGQGTQVTVSS | low polyreactivity
10 | QVQLVESGGGLVQAGGSLRLSCAASGNTFYVNVMGWYRQAPGKEREFVAAISTRGVSTSYADSVKGRVTISRDNAKNTVYLQMNSLKPEDTAVYYCAASFRRPQPKGSTYGYWGQGTQVTVSS | high polyreactivity
11 | QVQLVESGGGLVQAGGSLRLSCAASGRTFLDNAMGWYRQAPGNEWELVATICSSGGTRYYADSVKGSFTISRDNAKNTVYLPMHSQKPEDTAVYYCNALWWGRYYRPYVTPVLGRMEYWGQGTQVTVSS | low polyreactivity
12 | QVQLVESGGGLVQAGGSLLLSCAASGFSFEKNAMGWYIQEPGKERELVAAISRGGSTYADSVKGRFTISRDNAKNTVYLQMYSRKPVDTAVYYCAADTVYIFSSAINGEFGYWGQGTQVTVSS | low polyreactivity
13 | QVQLVESGGGLVQAGGSLRLSCAASGIIFATNGMGWYRQAPGKEREFVASSTNGGSTNYADSVKGRFTISRDNAKNTVYLQMNSLKPEDTAVYYCAAAASDDYDYPTEYEYWGQGTQVTVSS | high polyreactivity
14 | QVQLVESGGGLVQSGGSLRLSSAAYGNTFFPYTIGRYRQAPGKERELVAAISWNGGTTYYADSVKGRFTISRDNAKNTVYLQMISLKPEDSAVYYCAAPRASGYYWGQGTQVTVSS | high polyreactivity
15 | QVQLVESGGGLVQAGGSLRLSCAASGFIFWRYAMGWYRQAPGKERELVAAISSGGNTKYADSVKGRFTISRDNAKNTVYLQMNSLKPEDTAVYYCAVLGKYLWSATNRFPGSYDSWGQGTQVTVSS | high polyreactivity
16 | QVQLVESGGGLVQAGGSLRLSCAASGSIFYVNGMGWYRQAPGKEREFVARITLSGTSTYYADSVKGRFTISRDNAKNTVYLQMNSLKPEDTAVSYCAAPYFTYGQDDDDYWGQGTQVTVSS | low polyreactivity
17 | QVQLVESGGGLVQAGGSLRLSCAASGRTFIGYAMGWYRQAPGKERELVATISVSGGSTYYADSVKGRFTISRDNAKNTVYLQMNSLKPEDTAVYYCAKAYLRYYDGPYDYWGQGTQVTVSS | low polyreactivity
18 | QVQLVESGGGLVQAGGSLRLSCAASGIIFQAYAMGWYRQAPGKERELVAAISYSGGSTYYADSVKGRFTISRDNAKNTVYLQMNCLKPEDTAVYYCAATFYGYFDSVFSWGYYYWGQGTQVTVSS | low polyreactivity
19 | QVQLVESGGGLVQAGGSLRLSCAASGRTLRVNTMGWYRQAPGKERELVAAISSGGSRTNYADSVKGRFTISRDNAKNTVYLQMNSLKPEDTAVYYCNKYNRFVYSPPSVYWGQGTQVTVSS | high polyreactivity
20 | QVQLVESGGGLVQAGGSLRLSCAASGRILSGYTMGGYRQAPGKERELVAAINWRGGTTYYADSVKGRFTISRDNAKHTVYLQMNSLKPEDTAVYYCDADYYYQAGFYYWGQGTQVTVSS | low polyreactivity
21 | QVQIVESGGGLVQAGGSLRLSCAASGSIFLKYAMGWYRQAPGKERELVATFSRGGSTNYADSVKGRFTISRDNAKITVYFQMNSLKPEDTAVYNCARRRTYPPGRYYYWGQGTQVTVSS | high polyreactivity
22 | QVQLVESGGGLLQAGGSLRLSCAASGFIFDGYAMGWYRQAPGKERELVAAISSVGSTYYADSVKGRFTISRDNAKKTVYLQMNSLKPEDTAVYYCAAVRFYTYNYWGQGTQVTVSS | low polyreactivity

Row | Sequence | polyreactivity (PSR sort gate)
23 | QVQLVESGGGLVQAGGSLRLSCAASGSIFRRNAMGWYRQAPGKERELVAAISQSGGSTYYADSVKGRFTISRDNAKNTVYLQMNSLKPEDTAVYYCAAKHRVYGTRGYGYDYWGQGTQVTVSS | high polyreactivity
24 | QVQLQESGGGLEQAGGSLRLSCAESGIIFDNPNMGWYRQAPGKERELVATINSGATTNYADSVKGRFTISRDNAKNTVYLQMNSLIPEDTAVYYCSVDLSPTYFYVWGQGTQVTVSS | high polyreactivity
25 | QVQLVESGGGLVQAGGSLRLSCAASGSTFQAYAMGWYRQAPGKERELVAAISVSDGITYYADSVKGRFTISRDNAKNTVYLQMNSLKPEDTAVNYCAAEISLSRSDRIESYDYWGQGTQVTVSS | low polyreactivity
26 | QVQLVESGGGLVQAGGSLRLSCAASGFIFYRNTKGWYRQAPGKEREFVAAIRWRGGSTYYADSVKGRFTISRDNAKNTVYLQMNSLNPEDTAVYYCNAPYKQDYDYWGQGTQVTVSS | high polyreactivity
27 | QVQLVESGGGLVQAGGSLRLSCAASGLTFVWYAMGWYIQAPGKERELVAGITSGGRTYYADSVKGRFTISRDNAKNTVYLQMISLKPEDTGVYDCNAVVRWGYGYDYWGQGTQVTVSS | high polyreactivity
28 | QVQLDESGRGLVQAGGSLRLSCAASGSTFGRYAMGRYREAPGKERELVAAISRGGGSTYYADSVKGRFTISRDNAKNTVYLQMNSLKPEDTAVYYCATDQNYPYSGGGDYWGQGTQVTVSS | low polyreactivity
29 | QVQLVESGGGLVQAGGSLRLSCAASGSTFPYYAMGWYRQAPGKERELVAAITSSTGRTYYADSVKGRFTISRDNAKNSVYLQMNSLKPEDSAVYYCNAEVYSDPYNDHDYWGQGTQVTVSS | low polyreactivity
30 | QVQLEESGGGLVQAGGSLRLSCAASGSTFVYYAMGWYRQSPGKERELVAAISRGGGSTYYADSVKGRFTISRDNAKNTVYLQMNSLKPEDTAVYYCAAVAGYRYYWGQGTQVTVSS | high polyreactivity
31 | QVQLVESGGGLVQAGGSLRLSCAASGYTFEFNVMGWYRQAPGKERELVASIRWGSTSYADSVKGRFTISRDNAKNTVYLQMNSLKPEDTAVYYCAAVTYDYWGQGTQVTVSS | low polyreactivity
32 | QVQLVESGGGLVHAGGSLRLSCAASGFIFKRYTMGWYRQAPGKERELVATINWNGGNTYYADSVKGRFTISRDNAKNTVYLQMNSVKQDDTAVYYCAATRYVTYGSWGQGTQVTVSS | high polyreactivity
33 | QVQLVESGGGLVQAGGSLRLSCAASGLIFYFYAMGWYRQAPGKERELVAGITNVGSTNYADSVKGRFTISRDNAKNTVYLQMNSLKPEDTAVYYCAAQYYTVRSTYDYWGQGTQVTVSS | high polyreactivity
34 | QVHLVESGGGLVQAGGSLRLSCAASGFTFLTNAMGWYRQAPGKERELVAAISQSGGRTYYADSVKGRFTISRDNAKNTVYLQMNSLKPEDTAVYYCAAGVRSTGRMDYWGQGTQVTVSS | high polyreactivity
35 | QVQLVESGGCLVQAGGSLRLSCAASGRIFHQNTMGWYRQAPGKERELVAAISATGGGTNYADSVKGRFTISRDNAKNTVYLQMNSLKPEDTAVYYCAVRPKTSWYSWYYWGQGTQVTVSS | low polyreactivity
36 | QVQLVESGGGLVQAGGSLRLSCAASGSIFVFNAMGWYRQAPGKERELVAAISNGDGTNYADSVKGRFTISRDNAKNTVYLQMNSLKPEETAVYYCAAVWTTLIVIEYDYWGQGTQVTVSS | low polyreactivity
37 | QVQLVESVGGLVQAGGSLRLSCAASGRIFSYNAMGWYRQAPGKERELVAAITWRGGNTYYADSVKGRFTISRDNAKNTVYLQMNSLKPEDTAVYYCNAVGYSKYYVRTGREFDYWGQGTQVTVSS | high polyreactivity
38 | QVQLVESGGGLVQAGGSLRLSCAASGSIFPYNVMGWYRQAPGKERELVAAITTGGRTNYADSVKGRFTISRDNAKNTVYLQMNSLKPEDTAVYYCAADRVVFGYWYYYWGQGTQVTVSS | high polyreactivity
39 | QVQLVESGGGLVQAGGSLRLSCAASGSTFTWYAMGWYRQAPGKERELVARINFSGGSTYADSVKGRFTISRDNAKNTVYLQMNSLKPEDTAVYYCAAVYPGRKARRKYDYWGQGTQVTVSS | low polyreactivity
40 | QVQLVESGGGLVEAGGSLRLSCAASGSIFRINAMGWYRQAPGKERELVAAISTLSGRTYYADSVKGRFTISRDNAKITVYLQMNSLKPEDTAVYYCAVGQARAGLIGGYWGQGTQVTVSS | high polyreactivity
41 | QVQLVESGGGLVQAGGTLRLSCAASGIIFGYYAMGCYRQAPGKERELVAAINSGGSTYYADSVKGRFTISRDNAKNTVYLQMNSLKPEDTAVYYCKAKLYSKYWGQGTQVTVSS | high polyreactivity
42 | QVQLVESGGGLVQAGGSLRLSCAASGFIFYHYAMGWYRQAPGKERELVAAISRRTGSTYYADSVKGRFTISRDNAKNTDYLQMNSLKPEDTSVYYCAADAYFIYSRYWYDYWGQGTQVTVSS | high polyreactivity
43 | QVQLVESGGGLVQAGGSLRLSCAASGSIFVYNDMGWYRQAPGKERELVAGIDWSGDRTYADSVKGRFTISRDNAKNTVYLQLNSLKPEDTAVYYCNADDWRWDEIIPYAVDYWGQGTQVTVSS | low polyreactivity
